In patent US20220017612A1 (TILOS THERAPEUTICS, published 2022):
Changes are numbered by the printed parent chain. Names and notes keep the numbering of the source.

B1: L48V_V44P (antibody, human IgG1, kappa, V domains shown)
VH: EVQLVESGGGLVQPGGSLRLSCAASGFTFTDYYMSWVRQAPGKGLEWVGFIRNKPNGYTTEYSASVKGRFTISRDNSQSSLYLQMNSLKTEDTAVYYCARYTGGGYFDYWGQGTLLTVSS
VL: DIQMTQSPSSLSASVGDRLTISCRASQDISNYLNWYQQKPGKTPKLLIYYTSRLHSGVPSRFSGSGSGTDYTLTISSLQPEDVATYFCQQGDTLPWTFGQGTKLEIKR
notes: also called 28G11_H2L3 with HC L48V and LC V44P
B2: L109V_F87Y (antibody, human IgG1, kappa, V domains shown)
VH: B1 VH with V48L, L116V
VL: B1 VL with P44V, F87Y
notes: also called 28G11_H2L3 with HC L109V and LC F87Y
B3: L109V_T43V (antibody, human IgG1, kappa, V domains shown)
VH: B1 VH with V48L, L116V
VL: B1 VL with T43V, P44V
notes: also called 28G11_H2L3 with HC L109V and LC T43V
B4: L48V_F87Y (antibody, human IgG1, kappa, V domains shown)
VH: B1 VH
VL: B1 VL with P44V, F87Y
notes: also called 28G11_H2L3 with HC L48V and LC F87Y
B5: N73D_F87Y (antibody, human IgG1, kappa, V domains shown)
VH: B1 VH with V48L, N76D
VL: B1 VL with P44V, F87Y
notes: label to be rechecked; also called 28G11_H2L3 with HC N73D and LC F87Y
B6: L48V_WT (antibody, human IgG1, kappa, V domains shown)
VH: B1 VH
VL: B1 VL with P44V
notes: also called 28G11_H2L3 with HC L48V
B7: 20E6_H0.2aL1_hIgG1 VH_D52A (antibody, V domains shown)
VH: EVQLVQSGAEVKKPGASVKVSCKASGYTFTSYWMHWVRQAPGQGLEWMGRIAPQSGGIKYAQKFQGRATLTVDTSTSTAYMELSRLRSDDTAVYYCARWDYGGYFDVWGQGTLVTVSS
VL: B1 VL with L19V, S22T, S30T, T43A, P44V, V83F
B8: 20E6_H0.2aL1_hIgG1 VH_H35A (antibody, V domains shown)
VH: B7 VH with H35A, A52D
VL: B1 VL with L19V, S22T, S30T, T43A, P44V, V83F
B9: 20E6_H0.2aL1_hIgG1 VH_V107A (antibody, V domains shown)
VH: B7 VH with A52D, V107A
VL: B1 VL with L19V, S22T, S30T, T43A, P44V, V83F
B10: 20E6_H0.2aL1_hIgG1 VH_I58A (antibody, V domains shown)
VH: B7 VH with A52D, I58A
VL: B1 VL with L19V, S22T, S30T, T43A, P44V, V83F
B11: 20E6_H0.2aL1_hIgG1 VL_T30A (antibody, V domains shown)
VH: B7 VH with A52D
VL: B1 VL with L19V, S22T, S30A, T43A, P44V, V83F
B12: 20E6_H0.2aL1_hIgG1 VH_Y32A (antibody, V domains shown)
VH: B7 VH with Y32A, A52D
VL: B1 VL with L19V, S22T, S30T, T43A, P44V, V83F
B13: 20E6_H0.2aL1_hIgG1 VH_P53A (antibody, V domains shown)
VH: B7 VH with A52D, P53A
VL: B1 VL with L19V, S22T, S30T, T43A, P44V, V83F
B14: 20E6_H0.2aL1_hIgG1 VH_Y27A (antibody, V domains shown)
VH: B7 VH with Y27A, A52D
VL: B1 VL with L19V, S22T, S30T, T43A, P44V, V83F
B15: 20E6_H0.2aL1_hIgG1 VH_K59A (antibody, V domains shown)
VH: B7 VH with A52D, K59A
VL: B1 VL with L19V, S22T, S30T, T43A, P44V, V83F
B16: 20E6_H0.2aL1_hIgG1 VL_H55A (antibody, V domains shown)
VH: B7 VH with A52D
VL: B1 VL with L19V, S22T, S30T, T43A, P44V, H55A, V83F
B17: 20E6_H0.2aL1_hIgG1 VL_I29A (antibody, V domains shown)
VH: B7 VH with A52D
VL: B1 VL with L19V, S22T, I29A, S30T, T43A, P44V, V83F
B18: 20E6_H0.2aL1_hIgG1 VL_T51A (antibody, V domains shown)
VH: B7 VH with A52D
VL: B1 VL with L19V, S22T, S30T, T43A, P44V, T51A, V83F
B19: 20E6_H0.2aL1_hIgG1 VH_F29A (antibody, V domains shown)
VH: B7 VH with F29A, A52D
VL: B1 VL with L19V, S22T, S30T, T43A, P44V, V83F
B20: 20E6_H0.2aL1_hIgG1 VH_Q54A (antibody, V domains shown)
VH: B7 VH with A52D, Q54A
VL: B1 VL with L19V, S22T, S30T, T43A, P44V, V83F
B21: 20E6_H0.2aL1_hIgG1 VH_S55A (antibody, V domains shown)
VH: B7 VH with A52D, S55A
VL: B1 VL with L19V, S22T, S30T, T43A, P44V, V83F
B22: 20E6_H0.2aL1_hIgG1 VH_T30A (antibody, V domains shown)
VH: B7 VH with T30A, A52D
VL: B1 VL with L19V, S22T, S30T, T43A, P44V, V83F
B23: 20E6_H0.2aL1_hIgG1 VL_S52A (antibody, V domains shown)
VH: B7 VH with A52D
VL: B1 VL with L19V, S22T, S30T, T43A, P44V, S52A, V83F
B24: 20E6_H0.2aL1_hIgG1 VH_G56A (antibody, V domains shown)
VH: B7 VH with A52D, G56A
VL: B1 VL with L19V, S22T, S30T, T43A, P44V, V83F
B25: 20E6_H0.2aL1_hIgG1 VH_W33A (antibody, V domains shown)
VH: B7 VH with W33A, A52D
VL: B1 VL with L19V, S22T, S30T, T43A, P44V, V83F
B26: 20E6_H0.2aL1_hIgG1 VH_M34A (antibody, V domains shown)
VH: B7 VH with M34A, A52D
VL: B1 VL with L19V, S22T, S30T, T43A, P44V, V83F
B27: 20E6_H0.2aL1_hIgG1 VH_S31A (antibody, V domains shown)
VH: B7 VH with S31A, A52D
VL: B1 VL with L19V, S22T, S30T, T43A, P44V, V83F
B28: 20E6_H0.2aL1_hIgG1 VH_D100A (antibody, V domains shown)
VH: B7 VH with A52D, D100A
VL: B1 VL with L19V, S22T, S30T, T43A, P44V, V83F
B29: 20E6_H0.2aL1_hIgG1 VH_G26A (antibody, V domains shown)
VH: B7 VH with G26A, A52D
VL: B1 VL with L19V, S22T, S30T, T43A, P44V, V83F
B30: 20E6_H0.2aL1_hIgG1 VL_Q89A (antibody, V domains shown)
VH: B7 VH with A52D
VL: B1 VL with L19V, S22T, S30T, T43A, P44V, V83F, Q89A
B31: 20E6_H0.2aL1_hIgG1 VL_T93A (antibody, V domains shown)
VH: B7 VH with A52D
VL: B1 VL with L19V, S22T, S30T, T43A, P44V, V83F, T93A
B32: 20E6_H0.2aL1_hIgG1 VL_R24A (antibody, V domains shown)
VH: B7 VH with A52D
VL: B1 VL with L19V, S22T, R24A, S30T, T43A, P44V, V83F
B33: 20E6_H0.2aL1_hIgG1 VL_L54A (antibody, V domains shown)
VH: B7 VH with A52D
VL: B1 VL with L19V, S22T, S30T, T43A, P44V, L54A, V83F
B34: 20E6_H0.2aL1_hIgG1 VH_G57A (antibody, V domains shown)
VH: B7 VH with A52D, G57A
VL: B1 VL with L19V, S22T, S30T, T43A, P44V, V83F
B35: 20E6_H0.2aL1_hIgG1 VH_D106A (antibody, V domains shown)
VH: B7 VH with A52D, D106A
VL: B1 VL with L19V, S22T, S30T, T43A, P44V, V83F
B36: 20E6_H0.2aL1_hIgG1 VH_T28A (antibody, V domains shown)
VH: B7 VH with T28A, A52D
VL: B1 VL with L19V, S22T, S30T, T43A, P44V, V83F
B37: 20E6_H0.2aL1_hIgG1 VL_N31A (antibody, V domains shown)
VH: B7 VH with A52D
VL: B1 VL with L19V, S22T, S30T, N31A, T43A, P44V, V83F
B38: 20E6_H0.2aL1_hIgG1 VH_I51A (antibody, V domains shown)
VH: B7 VH with I51A, A52D
VL: B1 VL with L19V, S22T, S30T, T43A, P44V, V83F
B39: 20E6_H0.2aL1_hIgG1 VL_R53A (antibody, V domains shown)
VH: B7 VH with A52D
VL: B1 VL with L19V, S22T, S30T, T43A, P44V, R53A, V83F

Biological target: T1, human LAP-TGFβ1 overexpressed on cells (human, UniProt P01137 30-390)
T1 construct: HT1080 or P3U1 cells overexpressing wild-type human LAP-TGFβ1; also called HT1080-huB1; HT1080-hβ1
T1 sequence (P01137 30-390): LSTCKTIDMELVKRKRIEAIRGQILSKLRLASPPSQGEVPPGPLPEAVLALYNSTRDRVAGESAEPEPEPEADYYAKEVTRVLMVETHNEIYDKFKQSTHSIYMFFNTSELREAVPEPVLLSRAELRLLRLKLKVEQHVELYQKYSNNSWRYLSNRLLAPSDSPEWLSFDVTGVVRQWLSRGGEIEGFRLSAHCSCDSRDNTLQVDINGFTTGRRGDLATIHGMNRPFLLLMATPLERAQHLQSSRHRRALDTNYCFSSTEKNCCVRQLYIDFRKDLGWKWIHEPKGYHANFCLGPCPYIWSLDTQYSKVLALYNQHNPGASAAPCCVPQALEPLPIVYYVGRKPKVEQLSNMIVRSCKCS
Experiment: flow cytometry; black bar HT1080-huB1, grey bar HT1080

Binder | binding result
B1 | binds
B2 | binds
B3 | binds
B4 | binds
B5 | no binding
B6 | binds

Biological target: biotinylated human LAP-TGFβ1 (Example 14) (human, UniProt P01137 30-390, biotinylated, sites not stated)
Sequence (P01137 30-390 limits assumed): as the sequence (P01137 30-390) above
Experiment: BLI, antigen on tip, CHO supernatant; ratio to wild type
Experimental: A total of 49 single alanine substitutions were made in the heavy and light chain CDRs of the antibody to identify critical residues for human LAP-TGFβ1 binding. In addition, residue A25 in the light chain was substituted with glycine. Plasmid DNA for these variants was transfected into ExpiCHO cells in 1 mL cultures on 24-well plates, along with wells containing no DNA (negative control) and wells transfected with DNA for the wild-type antibody (positive control). IgG concentrations in each well were determined by binding to Protein A-functionalized tips. Tips were dipped into wells containing the supernatants from each culture. IgG concentrations were determined by comparing the rate of signal change for each well against the rate of signal change for a standard curve of purified 20E6_H0.2aL1_hIgG1 antibody diluted into ExpiCHO media. CHO supernatants were diluted to 0.6 μg/mL in media. A streptavidin-functionalized tip was equilibrated in binding buffer (10 mM sodium phosphate, 150 mM sodium chloride, 1% (w/v) bovine serum albumin, 0.05% (w/v) sodium azide, pH 7.4) and then dipped in a 5 μg/mL solution of biotinylated human LAP-TGFβ1 in binding buffer for 60 seconds to load the tip with antigen. The antigen-loaded tip was then washed in binding buffer and placed in the diluted CHO supernatant. The antigen was allowed to bind to antibody for 5 minutes (association phase), and then the tip was moved to binding buffer (dissociation phase). The association and dissociation phases were fit to a 1:1 binding model to determine binding rate constants.

Binder | KD,WT/KD,Ala
B7 | 0.71
B8 | 2.07
B9 | 1.08
B10 | 0.52
B11 | 1
B12 | 1
B13 | 0.87
B14 | 1.29
B15 | 0.69
B16 | 0.33
B17 | 0.02
B18 | 0.8
B19 | 1.16
B20 | 0.67
B21 | 0.96
B22 | 0.94
B23 | 0.12

Binder | KD,WT/KD,Ala
B24 | 1.62
B25 | 0.12
B26 | 0.84
B27 | 0.6
B28 | 0.28
B29 | 1.4
B30 | 0.01
B31 | 0.64
B32 | 0.01
B33 | 0.1
B34 | 0.37
B35 | 0.24
B36 | 0.97
B37 | 0.48
B38 | 0.73
B39 | 0.02
